As usually defined, the EC50 is the concentration that produces a half-maximal response.

What all share (assay): ELISA
On the technique in general: An ELISA detects its analyte on a solid surface through an enzyme-linked reagent.

The target in assay [1] is T1, human TfR-1 (human, UniProt P02786).
The next assay concerns the target T2, human TfR-2 (human, UniProt Q9UP52).
T2 chain: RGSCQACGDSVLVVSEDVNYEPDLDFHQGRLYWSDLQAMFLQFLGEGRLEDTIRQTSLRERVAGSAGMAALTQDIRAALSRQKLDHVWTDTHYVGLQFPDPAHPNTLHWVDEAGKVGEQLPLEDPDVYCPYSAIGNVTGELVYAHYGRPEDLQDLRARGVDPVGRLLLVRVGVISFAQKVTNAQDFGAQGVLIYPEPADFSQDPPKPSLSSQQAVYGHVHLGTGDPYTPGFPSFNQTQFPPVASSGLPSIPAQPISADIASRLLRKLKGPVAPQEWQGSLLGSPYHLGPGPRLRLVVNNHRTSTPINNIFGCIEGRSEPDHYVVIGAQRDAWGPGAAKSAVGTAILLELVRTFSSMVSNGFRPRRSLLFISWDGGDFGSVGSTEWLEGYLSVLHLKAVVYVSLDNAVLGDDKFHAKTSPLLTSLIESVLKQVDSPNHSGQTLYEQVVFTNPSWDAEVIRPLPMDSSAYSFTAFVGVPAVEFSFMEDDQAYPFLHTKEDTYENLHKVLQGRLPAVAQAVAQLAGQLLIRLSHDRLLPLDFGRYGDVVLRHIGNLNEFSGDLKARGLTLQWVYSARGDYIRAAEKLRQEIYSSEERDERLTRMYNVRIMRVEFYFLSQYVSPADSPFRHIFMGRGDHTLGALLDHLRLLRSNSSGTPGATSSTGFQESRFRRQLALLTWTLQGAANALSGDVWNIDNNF

Assay [2] has as its target T3, mouse TfR-1 (mouse, UniProt Q62351).
Assay [3] has as its target T1, human TfR-1. This is another data set of the same source.
For assay [4], the target named is T1, human TfR-1. The source holds these as a separate data set.
The target in assay [5] is T3, mouse TfR-1. This is another data set of the same source.

Where two headings read alike, the source gives them in different places.

T1 sequence (P02786 89-760): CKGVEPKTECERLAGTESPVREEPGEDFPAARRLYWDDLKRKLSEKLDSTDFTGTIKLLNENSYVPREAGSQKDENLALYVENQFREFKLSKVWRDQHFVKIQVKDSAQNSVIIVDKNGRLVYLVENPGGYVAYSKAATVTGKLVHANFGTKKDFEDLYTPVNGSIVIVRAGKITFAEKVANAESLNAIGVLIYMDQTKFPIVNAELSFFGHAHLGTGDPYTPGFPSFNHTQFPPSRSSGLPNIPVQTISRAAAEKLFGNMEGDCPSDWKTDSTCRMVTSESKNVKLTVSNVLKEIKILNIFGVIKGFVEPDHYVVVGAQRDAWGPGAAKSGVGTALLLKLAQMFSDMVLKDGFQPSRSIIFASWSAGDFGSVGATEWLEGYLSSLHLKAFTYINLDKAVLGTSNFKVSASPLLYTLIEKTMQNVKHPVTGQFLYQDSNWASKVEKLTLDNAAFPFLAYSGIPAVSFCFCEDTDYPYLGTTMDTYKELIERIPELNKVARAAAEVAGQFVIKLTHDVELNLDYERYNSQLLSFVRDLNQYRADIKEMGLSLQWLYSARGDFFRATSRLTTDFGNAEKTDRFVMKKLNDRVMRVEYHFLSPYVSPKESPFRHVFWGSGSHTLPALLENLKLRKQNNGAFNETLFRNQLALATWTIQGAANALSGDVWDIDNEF
T3 sequence (Q62351 89-763): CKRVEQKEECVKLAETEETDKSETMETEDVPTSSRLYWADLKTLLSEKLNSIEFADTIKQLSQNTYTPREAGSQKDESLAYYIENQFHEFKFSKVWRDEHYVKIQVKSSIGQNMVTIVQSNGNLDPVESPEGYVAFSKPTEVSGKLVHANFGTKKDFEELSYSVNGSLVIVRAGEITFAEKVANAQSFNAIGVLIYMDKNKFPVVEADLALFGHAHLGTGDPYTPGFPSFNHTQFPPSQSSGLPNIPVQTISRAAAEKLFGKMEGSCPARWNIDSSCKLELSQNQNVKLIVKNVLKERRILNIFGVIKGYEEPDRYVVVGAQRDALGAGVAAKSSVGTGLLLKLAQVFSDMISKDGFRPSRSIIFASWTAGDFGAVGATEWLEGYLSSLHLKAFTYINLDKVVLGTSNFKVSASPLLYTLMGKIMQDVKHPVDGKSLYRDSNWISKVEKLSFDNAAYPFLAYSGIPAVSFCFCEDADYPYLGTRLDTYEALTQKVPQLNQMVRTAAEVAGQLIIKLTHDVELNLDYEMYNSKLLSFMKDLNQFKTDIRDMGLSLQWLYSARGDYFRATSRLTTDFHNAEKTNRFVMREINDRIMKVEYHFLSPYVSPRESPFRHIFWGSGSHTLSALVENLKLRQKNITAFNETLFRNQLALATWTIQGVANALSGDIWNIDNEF

B1: F02-hFc (designed binder)
chain: ARVDQTPQTITKETGESLTINCVLRDNDCTLSSTHWYRKKSGSTNEERISKGGRYVETVNSGSKSFSLRINDLTVEDSGTYRCNVYAMTRNWWCDVYGGGTVVTVNAASGA
As to B1, the EC50 was 26.3 nM with human TfR-1 [1]; 34.3 nM in the assay with mouse TfR-1 [2]; approximately 100 nM in the assay with human TfR-1 [3]; 9 nM with human TfR-1 [4]; 34.2 nM in the assay with mouse TfR-1 [5]. Further, the binding result with human TfR-2 was “no binding”.

B2: H01-Fc (designed binder)
chain: ARVDQTPQTITKETGESLTINCVLRDSNCALSSTYWYRKKSGSTKEESISKGGRYVETVNSGSKSFSLRINDLTVEDSGTYRCNVWHDLVWSVCTTDVYGGGTVVTVNAASGA
For the molecule B2, the binding result with human TfR-2 is “no binding”. In the assay with human TfR-1 [3], this molecule yielded a concentration for a half-maximal effect (EC50) of approximately 100 nM.

The values are drawn from US10722576 (dated 2020).
